Results on 11 sequences are retold here after patent publication US20030180744.

For series [1], the target named is PDGF-AB (Homo sapiens) (UniProt P04085+P01127). As to the kind of experiment: filter. Conditions: 2'-F pyrimidines; +/-7; random pool.
Series [2] has as its target T1, KGF (hKGF) (Homo sapiens) (UniProt P21781).
T1 sequence: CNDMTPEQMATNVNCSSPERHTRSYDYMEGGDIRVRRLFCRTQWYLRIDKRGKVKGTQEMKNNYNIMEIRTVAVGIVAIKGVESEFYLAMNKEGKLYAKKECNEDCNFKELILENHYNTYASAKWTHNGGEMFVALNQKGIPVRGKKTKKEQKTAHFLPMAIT
As to the kind of experiment: filter.

The target of series [3] is T1, KGF (hKGF) (Homo sapiens). As to the kind of experiment: FP. The conditions noted are these: 2'-F pyrimidines; method is nitrocellulose filter binding; DPBS, 37 C.
Series [4] concerns the target T1, KGF (hKGF) (Homo sapiens). As to the kind of experiment: competition. Conditions: 2'-F pyrimidines, PC-3 cells.

Sequence of PDGF-AB (Homo sapiens) (P01127 82-190, chain 2 of 2, other chains not shown): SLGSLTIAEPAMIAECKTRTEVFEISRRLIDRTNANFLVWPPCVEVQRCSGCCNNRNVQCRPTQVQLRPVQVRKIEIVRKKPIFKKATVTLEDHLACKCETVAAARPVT

Broadly, the Kd is the concentration at which binding is half-saturated. “GGGAGACAAGAAUAACGCUCAANNNNNNNNNNNNNNNNNNNNNNNNNNNNNNNNNNNNNNNNNNNNNNNNNNUUCGACAGGAGGCUCACAACAGGC [random 2'-F RNA 50N]”: the Kd in series [1] was found to be 35 nM.

In series [2] (2'-F pyrimidines, DPBS, 37 C), “GGGAGGACGAUGCGGAACGGAGAUGUCCCCUCAAMAUUUACCGUCUCCGUUUGCGCCCCAGACGACUCGCCCGA [31F]” yielded a dissociation constant (Kd) of 1 nM.

In series [2] (2'-F pyrimidines, second column 0.94-2.57, DPBS, 37 C), “GGGAGGACGAUGCGGCAANNNNNNNCUCUCUCCUGGCGUUCCGCAACCCGCCCCCAGACGACUCGCCCGA [19F]” gave a dissociation constant (Kd) of 1.6 nM. In other words, the single-digit nanomolar range.

In turn, “GGGAGGACGAUGCGGCAGUCUCCCUAGGUUUCAUCUCUGCAGCAUUCCGGGGUNCCAGACGACUCGCCCGA [51F]” registered a Kd in series [2] (2'-F pyrimidines, DPBS, 37 C) of 1.27 nM.

In series [3], “GGGAGGACGAUGCGGGAAUUAACAGGGCCAGAAUUCUCAUCUNNCUUCCCGUGACCCAGACGACUCGCCCGA [12F]” showed a Kd of 1.38 nM. In other words, the single-digit nanomolar range.

Take “GGGAGGACGAUGCGGGAAUUCCCAGCGCUUGACUGAUACAAACNUUCCCGUGCCCCAGACGACUCGCCCGA [16F]”: the Kd in series [2] (2'-F pyrimidines, biphasic, high affinity 49%, Kd2 3.39 nM) was found to be 0.83 nM. In other words, the sub-nanomolar range.

Broadly, the IC50 is the concentration that inhibits the measured activity by half. Higher therefore signals weaker potency in that assay. One may read the Ki as the dissociation constant of the complex between target and ligand, obtained from inhibition or displacement. High values mean weaker binding, low ones tighter binding. In the case of “GGGAGGACGAUGCGGGGACAAWYAGCGGUGUCUUUUCAUUUNKAUCCUCCGACRUCCCAGACGACUCGCCCGA [56F]”, the equilibrium dissociation constant (Kd) in series [2] (2'-F pyrimidines, biphasic, high affinity 32%, Kd2 3.00 nM, PC-3 Ki 0.16 nM) was determined as 0.07 nM. In addition, in series [4], the half-inhibitory concentration (IC50) came to 1 nM. Further, the Ki in series [4] (27.4 nM on NIH3T3/FGFR-2) was 0.16 nM.

The sequence “GGGAGGACGAUGCGGNGACUGAUUUUUCCUUGNCAGUGUAAUUUCCUGGCUGCCCCAGACGACUCGCCCGA [38F]” yielded a dissociation constant Kd in series [2] (2'-F pyrimidines, DPBS, 37 C, PC-3 Ki 0.22 nM) of 0.33 nM. The IC50 in series [4] turned out to be 0.6 nM. Also, in series [4] (20 nM on NIH3T3/FGFR-2), the inhibition constant (Ki) was found to be 0.22 nM.

As to “GGGAGGACGAUGCGGNNNNNNNNNNNNNNNNNNNNNNNNNNNNNNNNNNNNNNNNCAGACGACUCGCCCGA [random 2'-F RNA 40N7]”, in series [2] (2'-F pyrimidines, random pool), the Kd turned out to be 30 nM.

“GGGAGGACGAUGCGGNNNNNNNNNNNNNNNNNNNNNNNNNNNNNNNNNNNNNNNNCAGACGACUCGCCCGA [random 2'-NH2 RNA 40N7]” had a Kd in series [2] (2'-NH2 pyrimidines, random pool) of 30 nM.

In turn, “GGGAGGACGAUGCGGUCGAGUGUUCUCCUUCGGUAACUAUUNNNNAUUUCGUGCCCAGACGACUCGCCCGA [44F]” yielded a Kd in series [2] (2'-F pyrimidines, DPBS, 37 C) of 1.32 nM.
